PMC8053096 (Nucleic Acids Research, 2021)

B1: MsmLhr C-terminal domain, MsmLhr-(863-1507) (domain or fragment, Mycobacterium smegmatis, UniProt A0QT91 863-1507, looked up)
chain: SPLAERRAAALALDTVLLSELLGRVELRELLDPAVVASTSAQLQHLTPERAARDAEGVADLLRLLGPLTEADIAQRCTADNIGAWLDGLHAAKRALPVTYAGQTWWAAVEDIGLLRDGIGVPVPVGVPAAFTESASDPLGDLIGRYARTRGPFTTEQTAARFGLGVRVASDVLSRMAVDGRLIRGEFAADLSGEQWCDAQVLKILRRRSLAALRAQVEPVSTDAYARFLPSWQHVGSTNTTGIDGLATVIEQLAGVPIPASAVESLVFPQRVRDYQPAMLDELLASGEVMWSGAGQIGNGDGWVAFHLADTAPLTLTHGAEIEFTDTHRVILETLGHGGAYFFRQLTDGTVEGTAGQELKQALWELIWAGWVTGDTFAPVRAVLSGPRRSGAPAHRQRQRPPRLSRYSVAHAQTRGTDPTVSGRWSALPAAEPDSTVRAHFQAELLLGRHGVLTKGAVGAEGVPGGFATLYKVLSTFEDAGRCQRGYFVESLGGAQFAVASTVDRLRSYLDNVDPERPEYHAVVLAATDPANPYGAALGWPTDSEAHRPGRKAGALVALVDGRLVWFLERGGRSLLSFGADADAQRAAAGALTDLVSAGRIPSLLVERINGVAVLDPDVDAERAVVQDALLGAGLSRTPRGLRLR
B2: full-length Escherichia coli Lhr (enzyme, Escherichia coli K-12 MG1655)
chain: SEFELRRQACMADNPDPSSLLPDVFSPATRDWFLRAFKQPTAVQPQTWHVAARSEHALVIAPTGSGKTLAAFLYALDRLFREGGEDTREAHKRKTSRILYISPIKALGTDVQRNLQIPLKGIADERRRRGETEVNLRVGIRTGDTPAQERSKLTRNPPDILITTPESLYLMLTSRARETLRGVETVIIDEVHAVAGSKRGAHLALSLERLDALLHTSAQRIGLSATVRSASDVAAFLGGDRPVTVVNPPAMRHPQIRIVVPVANMDDVSSVASGTGEDSHAGREGSIWPYIETGILDEVLRHRSTIVFTNSRGLAEKLTARLNELYAARLQRSPSIAVDAAHFESTSGATSNRVQSSDVFIARSHHGSVSKEQRAITEQALKSGELRCVVATSSLELGIDMGAVDLVIQVATPLSVASGLQRIGRAGHQVGGVSKGLFFPRTRRDLVDSAVIVECMFAGRLENLTPPHNPLDVLAQQTVAAAAMDALQVDEWYSRVRRAAPWKDLPRRVFDATLDMLSGRYPSGDFSAFRPKLVWNRETGILTARPGAQLLAVTSGGTIPDRGMYSVLLPEGEEKAGSRRVGELDEEMVYESRVNDIITLGATSWRIQQITRDQVIVTPAPGRSARLPFWRGEGNGRPAELGEMIGDFLHLLADGAFFSGTIPPWLAEENTIANIQGLIEEQRNATGIVPGSRHLVLERCRDEIGDWRIILHSPYGRRVHEPWAVAIAGRIHALWGADASVVASDDGIVARIPDTDGKLPDAAIFLFEPEKLLQIVREAVGSSALFAARFRECAARALLMPGRTPGHRTPLWQQRLRASQLLEIAQGYPDFPVILETLRECLQDVYDLPALERLMRRLNGGEIQISDVTTTTPSPFATSLLFGYVAEFMYQSDAPLAERRASVLSLDSELLRNLLGQVDPGELLDPQVIRQVEEELQRLAPGRRAKGEEGLFDLLRELGPMTVEDLAQRHTGSSEEVASYLENLLAVKRIFPAMISGQERLACMDDAARLRDALGVRLPESLPEIYLHRVSYPLRDLFLRYLRAHALVTAEQLAHEFSLGIAIVEEQLQQLREQGLVMNLQQDIWVSDEVFRRLRLRSLQAAREATRPVAATTYARLLLERQGVLPATDGSPALFASTSPGVYEGVDGVMRVIEQLAGVGLPASLWESQILPARVRDYSSEMLDELLATGAVIWSGQKKLGEDDGLVALHLQEYAAESFTPAEADQANRSALQQAIVAVLADGGAWFAQQISQRIRDKIGESVDLSALQEALWALVWQGVITSDIWAPLRALTRSSSNARTSTRRSHRARRGRPVYAQPVSPRVSYNTPNLAGRWSLLQVEPLNDTERMLALAENMLDRYGIISRQAVIAENIPGGFPSMQTLCRSMEDSGRIMRGRFVEGLGGAQFAERLTIDRLRDLATQATQTRHYTPVALSANDPANVWGNLLPWPAHPATLVPTRRAGALVVVSGGKLLLYLAQGGKKMLVWQEKEELLAPEVFHALTTALRREPRLRFTLTEVNDLPVRQTPMFTLLREAGFSSSPQGLDWG

Molecular target: the molecule itself
Experiment: SEC

Protein	binding result
B1	binds
B2	binds
